Experimental data published in publication PMC9076634, “Fibronectin binding protein B binds to loricrin and promotes corneocyte adhesion by Staphylococcus aureus” (Nature Communications, 2022).

Target: T1, recombinant GST-tagged human loricrin (GST-loricrin) (human, UniProt P23490 1-312)
T1 construct: loricrin, human, full length; also called GST-tagged full length loricrin
T1 sequence (looked up): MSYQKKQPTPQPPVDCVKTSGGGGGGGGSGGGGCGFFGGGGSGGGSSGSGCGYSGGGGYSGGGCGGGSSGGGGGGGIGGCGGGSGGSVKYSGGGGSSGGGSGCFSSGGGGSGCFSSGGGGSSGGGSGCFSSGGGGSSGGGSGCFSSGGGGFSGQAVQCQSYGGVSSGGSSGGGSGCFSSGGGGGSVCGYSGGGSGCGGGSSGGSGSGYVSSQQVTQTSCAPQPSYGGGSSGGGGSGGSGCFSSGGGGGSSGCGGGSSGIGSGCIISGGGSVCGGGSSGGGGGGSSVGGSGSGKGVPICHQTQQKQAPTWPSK
Experiment: dynamic force spectroscopy (AFM); as the single-molecule force spectroscopy, retraction speeds 1, 2.5, 5 and 10 µm s^-1; Bell-Evans fit of the high-force regime (loading rates 1.4 × 10^4 to 5 × 10^5 pN s^-1)
Details: one partner purified

B1: fibronectin binding protein B (FnBPB) on S. aureus SH1000 4X (pFnBPB) cells (natural protein)
chain: ASEQNNTTVEESGSSATESKASETQTTTNNVNTIDETQSYSATSTEQPSQSTQVTTEEAPKTVQAPKVETSRVDLPSEKVADKETTGTQVDIAQPSNVSEIKPRMKRSTDVTAVAEKEVVEETKATGTDVTNKVEVEEGSEIVGHKQDTNVVNPHNAERVTLKYKWKFGEGIKAGDYFDFTLSDNVETHGISTLRKVPEIKSTDGQVMATGEIIGERKVRYTFKEYVQEKKDLTAELSLNLFIDPTTVTQKGNQNVEVKLGETTVSKIFNIQYLGGVRDNWGVTANGRIDTLNKVDGKFSHFAYMKPNNQSLSSVTVTGQVTKGNKPGVNNPTVKVYKHIGSDDLAESVYAKLDDVSKFEDVTDNMSLDFDTNGGYSLNFNNLDQSKNYVIKYEGYYDSNASNLEFQTHLFGYYNYYYTSNLTWKNGVAFYSNNAQGDGKDKLKEPIIEHSTPIELEFKSEPPVEKHELTGTIEESNDSKPIDFEYHTAVEGAEGHAEGTIETEEDSIHVDFEESTHENSKHHADVVEYEEDTNPGGGQVTTESNLVEFDEDSTKGIVTGAVSDHTTIEDTKEYTTESNLIELVDELPEEHGQAQGPIEEITENNHHISHSGLGTENGHGNYGVIEEIEENSHVDIKSELGYEGGQNSGNQSFEEDTEEDKPKYEQGGNIVDIDFDSVPQIHGQNNGNQSFEEDTEKDKPKYEQGGNIIDIDFDSVPHIHGFNKHTEIIEEDTNKDKPNYQFGGHNSVDFEEDTLPQVSGHNEGQQTIEEDTTPPIVPPTPPTPEVPSEPETPTPPTPEVPSEPETPTPPTPEVPTEPGKPIPPAKEEPKKPSKPVEQGKVVTPVIEINEKVKAVVPTKKAQSKKSELPET
Question: With B1 as the binder, how does the koff read?
Answer: 5.8e-09 s⁻¹
